Source: patent US20240272170A1 (QUANTUM SI, published 2024)
Where a chain is given by its changes, count along the chain named. No end group written: not given here. *: point of attachment. FITC = O=C1OC2(c3ccc(O)cc3Oc3cc(O)ccc32)c2ccc(NC(=S)*)cc21

Experiments:
[1] = target: T1, AA peptide; test: BLI (Octet), peptide on sensor, purified protein in solution
T1 construct: The peptide was coated on the Octet sensor; also called peptide with N-terminal alanine and penultimate alanine
Excerpt: (§1) In the high-throughput assay, Octet sensors are coated with the peptide of interest and dipped in buffer containing the purified protein. An approximation of relative binding can be obtained by comparing the response after 200 seconds for each protein. Each protein has approximately the same molecular mass and is used at the same concentration, so ranking the proteins by response level in this assay gives an approximation of which proteins have improved binding. Studying the on and off-rate can also give insight into the mechanism of binding.

[2] = target: T2, VA peptide; test: as above
T2 construct: The peptide was coated on the Octet sensor; also called peptide with N-terminal valine and penultimate alanine
Excerpt: as §1

[3] = target: T3, LA peptide; test: as above
T3 construct: The peptide was coated on the Octet sensor; also called peptide with N-terminal leucine and penultimate alanine
Excerpt: as §1

[4] = target: T1, AA peptide; test: BLI (Octet), peptide on sensor, purified protein in solution; second row for PS833
Excerpt: as §1

[5] = target: T2, VA peptide; test: as above
Excerpt: as §1

[6] = target: T3, LA peptide; test: as above
Excerpt: as §1

[7] = target: T4, LA Peptide (fluorescence polarization); test: fluorescence polarization, FITC peptide titrated with protein
T4 peptide: LAKLDEESILKQK(FITC)

[8] = target: T5, IA Peptide (fluorescence polarization); test: as above
T5 peptide: IAKLDEESILKQK(FITC)

[9] = target: T6, AA Peptide (fluorescence polarization), AAKLDEESILKQ{LYS(FITC)}; test: as above
T6 peptide: AAKLDEESILKQK(FITC)

[10] = target: T7, IA peptide (Octet assay of PS557 variants); test: Octet (BLI), peptide on sensor, response after 200 s association
T7 construct: Peptide coated on the Octet sensor
Excerpt: (§2) In the high-throughput assay, Octet sensors are coated with the peptide of interest and dipped in buffer containing the purified protein. […] Studying the on and off-rate can also give insight into the mechanism of binding.

[11] = target: T8, VA peptide (Octet assay of PS557 variants); test: as above
T8 construct: Peptide coated on the Octet sensor
Excerpt: as §2

[12] = target: T9, FA peptide (Octet assay of PS557 variants); test: as above
T9 construct: Peptide coated on the Octet sensor
Excerpt: as §2

[13] = target: T10, MA peptide (Octet assay of PS557 variants); test: as above
T10 construct: Peptide coated on the Octet sensor
Excerpt: as §2

[14] = target: T11, LA peptide (Octet assay of PS557 variants); test: as above
T11 construct: Peptide coated on the Octet sensor
Excerpt: as §2

[15] = target: T12, AA peptide (Octet assay of PS557 variants); test: as above
T12 construct: Peptide coated on the Octet sensor
Excerpt: as §2

[16] = target: T7, IA peptide (Octet assay of PS557 …); test: as above; remark: listed apart in the source
Excerpt: as §1

[17] = target: T9, FA peptide (Octet assay of PS557 …); test: as above; remark: listed apart in the source
Excerpt: as §1

[18] = target: T10, MA peptide (Octet assay of PS557 …); test: as above; remark: listed apart in the source
Excerpt: as §1

[19] = target: T13, WA peptide (Octet assay of PS557 variants); test: as above
T13 construct: Peptide coated on the Octet sensor
Excerpt: as §1

[20] = target: T14, YA peptide (Octet assay of PS557 variants); test: as above
T14 construct: Peptide coated on the Octet sensor
Excerpt: as §1

[21] = target: T15, MA Peptide (fluorescence polarization); test: fluorescence polarization, FITC peptide titrated with protein
T15 peptide: MAKLDEESILKQK(FITC)

[22] = target: VA Peptide (fluorescence polarization) (FITC on the C-terminal lysine); test: as above
[23] = target: T7, IA peptide (Octet assay of PS557 …); test: Octet (BLI), peptide on sensor, response after 200 s association; second PS833 row
Excerpt: as §1

[24] = target: T9, FA peptide (Octet assay of PS557 …); test: as above
Excerpt: as §1

[25] = target: T10, MA peptide (Octet assay of PS557 …); test: as above
Excerpt: as §1

[26] = target: T13, WA peptide (Octet assay of PS557 …); test: as above
Excerpt: as §1

[27] = target: T14, YA peptide (Octet assay of PS557 …); test: as above
Excerpt: as §1

B1: PS833 (designed binder)
chain: MPTAASATESAIEDTPAPARPVVDGRTKPKRQPRYHVVLWDDDDHTYQYVVVMLQSLFGHPPERGYRLAKEMDTQGRVIVLTTTREHAELKRDQIHAFGYDRLLARSKGSMKASIEAEE
notes: Variant of PS557
With B1 the “Octet response after 200 sec association” value [1] was 1 nm, the “Octet response after 200 sec association” value [2] was 8.6 nm and the “Octet response after 200 sec association” value [3] was 10.7 nm. For the same binder, the “Octet response after 200 sec association” value [4] was 0.849 nm, the “Octet response after 200 sec association” value [5] was 10.4 nm and the “Octet response after 200 sec association” value [6] was 12.4 nm.

B2: PS557 (other)
chain: B1 chain with V22E, D41N, M72V
notes: Natural ClpS parent protein; also called WT; wild-type protein
Binder B2 has a Kd [7] of 52 nM, a Kd [8] of 289 nM and a Kd [9] of 10000 nM. The Octet response [10] was 7.2 nm, the Octet response [11] was 4.8 nm and the Octet response [12] was 0.634 nm. It also gave an Octet response [13] of 1.95 nm, an Octet response [14] of 7.16 nm and an Octet response [15] of 0.612 nm. It also gave an Octet response [16] of 8.79 nm, an Octet response [17] of 0.0096 nm and an Octet response [18] of 1.68 nm. It also gave an Octet response [19] of 0.0049 nm and an Octet response [20] of 0.0431 nm.

B3: PS833 (designed binder)
chain: B1 chain
notes: Variant of PS557
In the case of B3, the Kd [21] is reported as 1040 nM, the Kd [22] is reported as 312 nM and the Kd [9] is reported as 7080 nM. The Octet response [23] was 10.8 nm, the Octet response [24] was 0.0889 nm and the Octet response [25] was 7.01 nm. It also gave an Octet response [26] of 0.0006 nm, an Octet response [27] of 0.109 nm and an Octet response [16] of 9.26 nm. The Octet response [17] was 0.0509 nm, the Octet response [18] was 5.11 nm and the Octet response [19] was 0.00561 nm. The Octet response [20] was 0.117 nm.
